Assay results taken from US20150376275A1.

How the values were obtained:
[1] = target: KIR (KIR2D receptors; KIR2DL1 and 2/3) on the patients' NK cells; test: receptor occupancy on patients' NK cells by flow cytometry after a single i.v. dose of 0.003 mg/kg (AML dose-escalation trial)
[2] = target: KIR (KIR2D receptors; KIR2DL1 and 2/3) on the patients' NK cells; test: receptor occupancy on patients' NK cells by flow cytometry after a single i.v. dose of 0.0003 mg/kg (AML dose-escalation trial)

- KIR occupancy [1]: 90%
- KIR occupancy [2]: 50%
Substance: fully human anti-KIR2DL1, 2 and 3 monoclonal antibody 1-7F9
